From patent US20090142280A1

What was measured:
[1] = target: oligopeptide-10 (HB64), …-NH2; assay: cell-based or functional assay
[2] = target: LL-37 (…) (human); assay: cell-based or functional assay
[3] = system: LL-37 (LLGDFFRKSKEKIGKEFKRIVQRIKDFLRNLVPRTES)
[4] = system: T1, oligopeptide-10 (HB64), FAKALKALLKALKAL-NH2
T1 sequence: FAKALKALLKALKAL

[5] = target: HB1345, decanoyl-KFKWPW-NH2; assay: cell-based or functional assay
[6] = target: hexapeptide-21 (HB168), FALLKL-NH2; assay: cell-based or functional assay

chymotrypsin (Sigma-Aldrich) (enzyme)
Survival of peptide (1 mg/mL) with chymotrypsin 25 µg/mL, no inhibitor, LC/MS, Expt. 34 [1]: < 1 h
Survival of peptide (1 mg/mL) with chymotrypsin 22 µg/mL, no inhibitor, LC/MS, Expt. 39 [2]: < 1 h

elastase (Sigma-Aldrich) (enzyme)
Survival of peptide (1 mg/mL) with elastase 25 µg/mL, no inhibitor, LC/MS, Expt. 22 [1]: < 1 h

kallikrein (Sigma-Aldrich) (enzyme)
Survival of peptide (1 mg/mL) with kallikrein 25 µg/mL, no inhibitor, LC/MS, Expt. 27 [1]: < 24 h
Survival of peptide (1 mg/mL) with kallikrein 22 µg/mL, no inhibitor, LC/MS, Expt. 41 [2]: < 4 h
Survival of peptide (1 mg/mL) with kallikrein 22 µg/mL, no inhibitor, LC/MS, Expt. 47 [2]: < 4 h
Survival of peptide (1 mg/mL) with kallikrein 22 µg/mL, no inhibitor, LC/MS, Expt. 49 [2]: < 1 h
Survival of peptide (1 mg/mL) with kallikrein 22 µg/mL, no inhibitor, LC/MS, Expt. 55 [2]: < 1 h

plasmin (Sigma-Aldrich)
TIC trace and mass spectrum (LC/MS) after 1-hour incubation [3]: the molecular weight of parent peptide LL-37 was undetectable
TIC and XIC traces (LC/MS) after a 4-hour exposure [4]: while most of the HB64 peptide was degraded, some parent peptide could still be detected

plasmin (Sigma-Aldrich) (enzyme)
Survival of peptide (1 mg/mL) with plasmin 20 µg/mL, no inhibitor, LC/MS, Expt. 45 [1]: < 4 h
Survival of peptide (1 mg/mL) with plasmin 25 µg/mL, no inhibitor, LC/MS, Expt. 25 [1]: < 4 h
Survival of peptide (1 mg/mL) with plasmin 25 µg/mL, no inhibitor, LC/MS, Expt. 30 [1]: < 6 h
Survival of peptide (1 mg/mL) with plasmin 46 µg/mL, no inhibitor, LC/MS, Expt. 32 [1]: < 4 h
Survival of peptide (1 mg/mL) with plasmin 22 µg/mL, no inhibitor, LC/MS, Expt. 37 [2]: < 1 h
Survival of peptide (1 mg/mL) with plasmin 22 µg/mL, no inhibitor, LC/MS, Expt. 38 [2]: < 45 min

trypsin (Sigma-Aldrich)
TIC traces (LC/MS) of peptide degradation at time zero, 1 hour and 23 hours [4]: the parent peak (represents the full-length, non-degraded peptide) in the TIC traces was reduced over time and peaks for various breakdown products increased in intensity over time

trypsin (Sigma-Aldrich) (enzyme)
Survival of peptide (1 mg/mL) with trypsin 25 µg/mL, no inhibitor, LC/MS, Expt. 4 [1]: < 1 h
Survival of peptide (1 mg/mL) with trypsin 25 µg/mL, no inhibitor, LC/MS, Expt. 10 [1]: < 1 h
Survival of peptide (1 mg/mL) with trypsin 25 µg/mL, no inhibitor, LC/MS, Expt. 12 [1]: < 1 h
Survival of peptide (1 mg/mL) with trypsin 25 µg/mL, no inhibitor, LC/MS, Expt. 8 [5]: < 1 h
Survival of peptide (1 mg/mL) with trypsin 25 µg/mL, no inhibitor, LC/MS, Expt. 6 [6]: < 1 h

urokinase (enzyme)
Survival of peptide (1 mg/mL) with urokinase 22 µg/mL, no inhibitor, LC/MS, Expt. 51 [2]: < 24 h
Survival of peptide (1 mg/mL) with urokinase 22 µg/mL, no inhibitor, LC/MS, Expt. 53 [2]: < 24 h
